Reference: paper PMC4906154, “Mitochondrial disease-related mutations at the cytochrome b-iron–sulfur protein (ISP) interface: Molecular effects on the large-scale motion of ISP and superoxide generation studied in Rhodobacter capsulatus cytochrome bc1^” (Biochimica et Biophysica Acta, 2016)
Residue numbers refer to the chain shown, from its start. In names and notes the source's numbering stands.

Substrate: CCCCCCCCCCc1c(C)c(O)c(OC)c(OC)c1O
Experiment: steady-state cytochrome c reduction, spectroscopic, Michaelis-Menten fit
Format: biochemical, Rhodobacter capsulatus
Settings: 20 μM bovine heart cytochrome c, 50 mM Tris pH 8.0, 0.01% DDM, 100 mM NaCl, DBH2 0.5-20 μM, Qo site, turnover given as Vmax

B1: cytochrome bc1 (R. capsulatus bc1 complex) (Rhodobacter capsulatus) (protein)
chain 1: MSGIPHDHYEPKTGIEKWLHDRLPIVGLVYDTIMIPTPKNLNWWWIWGIVLAFTLVLQIVTGIVLAIDYTPHVDLAFASVEHIMRDVNGGWAMRYIHANGASLFFLAVYIHIFRGLYYGSYKAPREITWIVGMVIYLLMMGTAFMGYVLPWGQMSFWGATVITGLFGAIPGIGPSIQAWLLGGPAVDNATLNRFFSLHYLLPFVIAALVAIHIWAFHTTGNNNPTGVEVRRTSKADAEKDTLPFWPYFVIKDLFALALVLLGFFAVVAYMPNYLGHPDNYIQANPLSTPAHIVPEWYFLPFYAILRAFAADVWVVILVDGLTFGIVDAKFFGVIAMFGAIAVMALAPWLDTSKVRSGAYRPKFRMWFWFLVLDFVVLTWVGAMPTEYPYDWISLIASTYWFAYFLVILPLLGATEKPEPIPASIEEDFNSHYGNPAE
chain 2: MSHAEDNAGTRRDFLYHATAATGVVVTGAAVWPLINQMNASADVKAMSSIFVDVSAVEVGTQLTVKWRGKPVFIRRRDEKDIELARSVPLGALRDTSAENANKPGAEATDENRSLAAFDGTNTGEWLVMLGVCTHLGCVPMGDKSGDFGGWFCPCHGSHYDSAGRIRKGPAPRNLDIPVAAFVDETTIKLG
notes: petABC operon from plasmid pPET1, C-terminal Strep-tag on cytochrome b, expressed in R. capsulatus MT-RBC1 (host), DDM-solubilised from chromatophores, Strep-tag purified; homodimer of 3 catalytic subunits; with Cytochrome c1
Km: 2.3 ± 0.5 µM | kcat: 146 ± 9 s⁻¹

B2: cytochrome bc1 (R. capsulatus bc1 complex) (Rhodobacter capsulatus; P0CY47:G332D) (protein)
chain 1: B1 chain 1 with G332D
chain 2: B1 chain 2
notes: as for B1
Km: 1.1 ± 0.2 µM | kcat: 45 ± 2 s⁻¹
